In patent publication US20180207269A1:
Values belong to the molecule of their own block, whether it stands above or below them.

What was measured:
[1] = target: CD166 (activated leukocyte cell adhesion molecule, ALCAM) on human cells (human) (UniProt Q13740); assay: flow cytometry, Wild-Type H9 cells, double staining anti-CD166-PE + ILT3.Fc-FITC
[2] = target: CD166 (activated leukocyte cell adhesion molecule, ALCAM) on human cells (human) (UniProt Q13740); assay: flow cytometry, CD3+ T cells triggered with CD3/CD28 (5ug/ml, 1ug/ml) w/o ILT3Fc, stained with ILT3Fc-FITC
[3] = target: CD166 (activated leukocyte cell adhesion molecule, ALCAM) on human cells (human) (UniProt Q13740); assay: cell-based or functional assay
[4] = target: CD166 (activated leukocyte cell adhesion molecule, ALCAM) on human cells (human) (UniProt Q13740); assay: flow cytometry, ILT3Fc-FITC on control-virus infected H9 cells
[5] = target: CD166 (activated leukocyte cell adhesion molecule, ALCAM) on human cells (human) (UniProt Q13740); assay: flow cytometry, CD3+ T cells triggered with PWM (0.05ug/ml) w/o ILT3Fc, stained with ILT3Fc-FITC
[6] = target: CD166 (activated leukocyte cell adhesion molecule, ALCAM) on human cells (human) (UniProt Q13740); assay: flow cytometry, CD3+ T cells, Control Treatment, cultured w/o ILT3Fc, stained with ILT3Fc-FITC
[7] = target: CD166 (activated leukocyte cell adhesion molecule, ALCAM) on human cells (human) (UniProt Q13740); assay: flow cytometry, CD3+ T cells, Control Treatment, cultured with ILT3Fc (50 ug/mL), stained with ILT3Fc-FITC
[8] = target: CD166 (activated leukocyte cell adhesion molecule, ALCAM) on human cells (human) (UniProt Q13740); assay: flow cytometry, CD3+ T cells triggered with CD3/CD28 (5ug/ml, 1ug/ml) in the presence of ILT3Fc (50 ug/mL), stained with ILT3Fc-FITC
[9] = target: CD166 (activated leukocyte cell adhesion molecule, ALCAM) on human cells (human) (UniProt Q13740); assay: flow cytometry, H9 cells infected with control adeno-virus (Adeno-Control) for 7 days, double staining anti-CD166 PE + ILT3Fc-FITC
[10] = target: CD166 (activated leukocyte cell adhesion molecule, ALCAM) on human cells (human) (UniProt Q13740); assay: flow cytometry, Jurkat cells nucleofected with CD166 over-expression plasmid, double staining anti-CD166 APC + ILT3Fc-FITC
[11] = target: CD166 (activated leukocyte cell adhesion molecule, ALCAM) on human cells (human) (UniProt Q13740); assay: flow cytometry, H9 cells with CD166 knocked down by CD166 shRNA adeno-virus (Adeno-siCD166) for 7 days, double staining anti-CD166 PE + ILT3Fc-FITC
[12] = target: CD166 (activated leukocyte cell adhesion molecule, ALCAM) on human cells (human) (UniProt Q13740); assay: flow cytometry, CD3-gated T cells of a healthy donor (low or no ILT3L)
[13] = target: CD166 (activated leukocyte cell adhesion molecule, ALCAM) on human cells (human) (UniProt Q13740); assay: flow cytometry, CD4-gated T helper cells of a healthy donor (low or no ILT3L)
[14] = target: CD166 (activated leukocyte cell adhesion molecule, ALCAM) on human cells (human) (UniProt Q13740); assay: flow cytometry, Jurkat cells nucleofected with control vector, double staining anti-CD166 APC + ILT3Fc-FITC
[15] = target: CD166 (activated leukocyte cell adhesion molecule, ALCAM) on human cells (human) (UniProt Q13740); assay: flow cytometry, CD3+ T cells triggered with PWM (0.05ug/ml) in the presence of ILT3Fc (50 ug/mL), stained with ILT3Fc-FITC
[16] = target: CD166 (activated leukocyte cell adhesion molecule, ALCAM) on human cells (human) (UniProt Q13740); assay: flow cytometry, ILT3Fc-FITC on H9 cells with CD166 knocked down by shRNA adeno-virus
[17] = target: CD166 (activated leukocyte cell adhesion molecule, ALCAM) on human cells (human) (UniProt Q13740); assay: flow cytometry, CD166 KO H9 cells (CD166 gene knocked out: control cells without the target), double staining anti-CD166-PE + ILT3.Fc-FITC
[18] = target: CD166 (activated leukocyte cell adhesion molecule, ALCAM) on human cells (human) (UniProt Q13740); assay: flow cytometry, Jurkat cells pre-incubated with J4-81, then ILT3Fc-FITC
[19] = target: CD166 (activated leukocyte cell adhesion molecule, ALCAM) on human cells (human) (UniProt Q13740); assay: flow cytometry, Jurkat cells pre-incubated with CD6-Fc, then ILT3Fc-FITC
[20] = target: CD166 (activated leukocyte cell adhesion molecule, ALCAM) on human cells (human) (UniProt Q13740); assay: flow cytometry, Jurkat cells pre-incubated with CD166-Fc, then ILT3Fc-FITC

% cells in lower left quadrant (CD166- / ILT3Fc-FITC-) [1]: 3.57%
% cells in lower right quadrant (CD166- / ILT3Fc-FITC+) [1]: 0.03%
% cells in upper left quadrant (CD166+ / ILT3Fc-FITC-) [1]: 22.3%
% cells in upper right quadrant (CD166+ / ILT3Fc-FITC+) [1]: 74.1%
% cells stained with ILT3Fc-FITC [2]: 26.9%
inhibition of growth of tumor cell lines at 72 hours [3]: 50 to 90%
percent of cells binding ILT3Fc [4]: 46%
% cells stained with ILT3Fc-FITC [5]: 23.2%
% cells stained with ILT3Fc-FITC [6]: 1.08%
% cells stained with ILT3Fc-FITC [7]: 0.8%
% cells stained with ILT3Fc-FITC [8]: 20.4%
% cells in lower left quadrant (CD166- / ILT3Fc-FITC-) [9]: 6.33%
% cells in lower right quadrant (CD166- / ILT3Fc-FITC+) [9]: 0.15%
% cells in upper left quadrant (CD166+ / ILT3Fc-FITC-) [9]: 47%
% cells in upper right quadrant (CD166+ / ILT3Fc-FITC+) [9]: 46.5%
% cells in lower left quadrant (CD166- / ILT3Fc-FITC-) [10]: 13.4%
% cells in lower right quadrant (CD166- / ILT3Fc-FITC+) [10]: 1.08%
% cells in upper left quadrant (CD166+ / ILT3Fc-FITC-) [10]: 66.3%
% cells in upper right quadrant (CD166+ / ILT3Fc-FITC+) [10]: 19.2%
% cells in lower left quadrant (CD166- / ILT3Fc-FITC-) [11]: 50%
% cells in lower right quadrant (CD166- / ILT3Fc-FITC+) [11]: 5.8%
% cells in upper left quadrant (CD166+ / ILT3Fc-FITC-) [11]: 26.7%
% cells in upper right quadrant (CD166+ / ILT3Fc-FITC+) [11]: 14.5%
percent ILT3Fc binding [12]: 12%
percent ILT3Fc binding [13]: 1%
% cells in lower left quadrant (CD166- / ILT3Fc-FITC-) [14]: 30.6%
% cells in lower right quadrant (CD166- / ILT3Fc-FITC+) [14]: 1.08%
% cells in upper left quadrant (CD166+ / ILT3Fc-FITC-) [14]: 58%
% cells in upper right quadrant (CD166+ / ILT3Fc-FITC+) [14]: 10.2%
% cells stained with ILT3Fc-FITC [15]: 15.2%
percent of cells binding ILT3Fc [16]: < 20%
% cells in lower left quadrant (CD166- / ILT3Fc-FITC-) [17]: 96.5%
% cells in lower right quadrant (CD166- / ILT3Fc-FITC+) [17]: 2.94%
% cells in upper left quadrant (CD166+ / ILT3Fc-FITC-) [17]: 0.1%
% cells in upper right quadrant (CD166+ / ILT3Fc-FITC+) [17]: 0.43%
Molecule: ILT3Fc (water-soluble recombinant protein: extracellular domain of human ILT3 affixed to the Fc portion of an immunoglobulin) (from UniProt Q8NHJ6 22-259; P01857 104-330) (Fc fusion)

percent inhibition of ILT3Fc-FITC binding [18]: 28%
Molecule: anti-CD166 mAb J4-81 (antibody)

percent inhibition of ILT3Fc-FITC binding [19]: 49%
B1: human CD6-Fc (Fc fusion, UniProt P30203 25-398, looked up, not shown: a dimerising Fc or GST)
chain: DQLNTSSAESELWEPGERLPVRLTNGSSSCSGTVEVRLEASWEPACGALWDSRAAEAVCRALGCGGAEAASQLAPPTPELPPPPAAGNTSVAANATLAGAPALLCSGAEWRLCEVVEHACRSDGRRARVTCAENRALRLVDGGGACAGRVEMLEHGEWGSVCDDTWDLEDAHVVCRQLGCGWAVQALPGLHFTPGRGPIHRDQVNCSGAEAYLWDCPGLPGQHYCGHKEDAGAVCSEHQSWRLTGGADRCEGQVEVHFRGVWNTVCDSEWYPSEAKVLCQSLGCGTAVERPKGLPHSLSGRMYYSCNGEELTLSNCSWRFNNSNLCSQSLAARVLCSASRSLHNLSTPEVPASVQTVTIESSVTVKIENKESRE

percent inhibition of ILT3Fc-FITC binding [20]: 30%
B2: human CD166Fc (Fc fusion, UniProt Q13740 28-526, looked up, not shown: a dimerising Fc or GST)
chain: WYTVNSAYGDTIIIPCRLDVPQNLMFGKWKYEKPDGSPVFIAFRSSTKKSVQYDDVPEYKDRLNLSENYTLSISNARISDEKRFVCMLVTEDNVFEAPTIVKVFKQPSKPEIVSKALFLETEQLKKLGDCISEDSYPDGNITWYRNGKVLHPLEGAVVIIFKKEMDPVTQLYTMTSTLEYKTTKADIQMPFTCSVTYYGPSGQKTIHSEQAVFDIYYPTEQVTIQVLPPKNAIKEGDNITLKCLGNGNPPPEEFLFYLPGQPEGIRSSNTYTLTDVRRNATGDYKCSLIDKKSMIASTAITVHYLDLSLNPSGEVTRQIGDALPVSCTISASRNATVVWMKDNIRLRSSPSFSSLHYQDAGNYVCETALQEVEGLKKRESLTLIVEGKPQIKMTKKTDPSGLSKTIICHVEGFPKPAIQWTITGSGSVINQTEESPYINGRYYSKIIISPEENVTLTCTAENQLERTVNSLNVSAISIPEHDEADEISDENREKVNDQA
